We go through 23 molecules from US20260242730A1 (POINTLOMA BIOSCIENCES, published 2026).

The labels stand for the following.
T1: human TROP2 (antigen of panning and clone screening) (human, UniProt P09758 27-274, limits assumed)
T1 construct: also called human TROP2-His protein; TROP2-expressing CHOK1 cells
T1 sequence (looked up): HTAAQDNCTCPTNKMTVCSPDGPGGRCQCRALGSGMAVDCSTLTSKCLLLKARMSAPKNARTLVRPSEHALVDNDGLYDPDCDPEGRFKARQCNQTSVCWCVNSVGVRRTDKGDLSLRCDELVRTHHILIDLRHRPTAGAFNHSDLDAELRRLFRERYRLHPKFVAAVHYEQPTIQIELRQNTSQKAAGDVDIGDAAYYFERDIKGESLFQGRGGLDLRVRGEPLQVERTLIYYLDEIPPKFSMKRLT

T2: recombinant human TROP2 protein (human, UniProt P09758 27-274)
T2 chain: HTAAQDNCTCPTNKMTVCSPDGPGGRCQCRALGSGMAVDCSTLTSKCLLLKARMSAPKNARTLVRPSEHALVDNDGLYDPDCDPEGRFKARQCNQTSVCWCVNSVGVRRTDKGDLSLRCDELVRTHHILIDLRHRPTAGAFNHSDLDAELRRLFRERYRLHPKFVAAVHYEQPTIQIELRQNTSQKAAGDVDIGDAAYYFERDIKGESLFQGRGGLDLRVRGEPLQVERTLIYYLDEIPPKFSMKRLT

B1: anti-TROP2 #TP11 VHH (VHH)
VHH: QVQLVESGGGLVQPGGSLRVSCAASGFRLDYYAIGWFRQAPGKEREGVSSINYSSGSTVYADSVKGRFTISRGNAKNTVYLQMNSLKPEDTAVYYCAVGTVVTSLAPYEYDYWGQGTQVTVSS
B2: anti-TROP2 #TP15 VHH (VHH)
VHH: QVQLVESGGGLVQPGGSLRLSCAVSGDIFSFYSMGWYRQAPGEQRELVAHITSGGSTHYADSVKGRFTISRDNAKNTVYLQMNSPKPEDTAVYYCNADLDYWVDSMGPYWGQGTQVTVSS
B3: anti-TROP2 #TP17 VHH (VHH)
VHH: EVQLVESGGGMVQPGGSLRLSCAFSGLTFSNYAMTWYRQAPGKERELVAGTPSPGGTTTYADSVKGRFTISRDNAEDTVYLQMNSLKPEDTAVYYCHARWMWPSDNAGMGYWGKGTLVTVSS
B4: anti-TROP2 #TP18 VHH (VHH)
VHH: QVQLVESGGGLVQPGGSLRLSCAASSSIFSIAIMGWYRQAPGKQRELVATISATDVTHYADSVKGRFTISRDDAWNAVYLQMDSLKAEDTAVYYCNSYLLQQRVPWGQGTQVTVSS
B5: anti-TROP2 #TP19 VHH (VHH)
VHH: EVQVVESGGGLVQPGGSLRLSCAASRSVFNIAIMGWYRQAPGKQRELVASISATDVTSYADSVKGRFTISRDDAWNAVYLQMDSLKSEDTAVYYCNSYLLQQRVPWGQGTQVTVSS
B6: anti-TROP2 #TP5 VHH (VHH)
VHH: QLQLVESGGGLVQPGGSLKLSCAASGFTLDYWTIGWFRQAPGKEREGVSCISSSDGSTYYADSVKGRFTISRDNAKRTVNLQMNSLKPEDTAVYYCAAGSLGYCSRSTPQYEYDFWGQGTQVTVSS
B7: anti-TROP2 #TP7 VHH (VHH)
VHH: QLQLVESGGGLVQPGGSLRLSCAASGFSLEHWTIGWFRQAPGKEREGVSCISSSDASTYYADSVKGRFTISRDNAKKSVYLQMNSLKLEDTAVYYCAAGSLGYCSRSTPQYEYDYWGQGTQVTVSS
B8: anti-TROP2 #TP8 VHH (VHH)
VHH: QLQLVESGGGLVQPGGSLRLSCAASGFTLDYWTIGWFRQAPGKEREGVSCVSSSGGITYYADSVKGRFTISRDNEKRTVYLQMNSLKPEDTAVYYCAAGSLGYCSRSTPQYEYDYWGQGTQVTVSS
B9: anti-TROP2 #TP6 VHH (VHH)
VHH: QLQLVESGGGLVQPGGSLRLSCAASGTLDYWTVGWFRQAPGKEREGVSCISSSDSSTYYADSVKGRFTISRDNAKNTVYLQMNSLKPEDTAVYYCAAGSLGYCSRSTPQYEYDFWGQGTQVTVSS
B10: anti-TROP2 #TP13 VHH (VHH)
VHH: EVQLVESGGGLVQPGGSLRLSCALSGFTKDYYGIGWFRQAPGKEREGVSCISVSGSSTNYADSVKGRFTISRDNAKNTVYLQMNSLKPEDTGVYYCAAAFMGSDYVVPEMSREYDYWGQGTQVTVSS
B11: anti-TROP2 #TP16 VHH (VHH)
VHH: QVQLVESGGGLVQPGGSLRLSCAASGFAFSFYVMTWYRQAPGKQREQVAAITSYGGANYADSVKGRFTISRDNAKNTVYLQMNALTSEDTAVYSCNAHLGPYDYWGQGTQVTVSS
B12: anti-TROP2 #TP20 VHH (VHH)
VHH: EVQVVESGGGLVQPGGSLRLSCAASGNIKSTAVMGWHRQAPGKEREWVAIITTGEDRFSGDRLQYADSVKDRFTISRDNAKNTVYLQMNSLKPEDTAVYYCNVDVLYMADGRYARSEFWGQGTQVTVSS
B13: anti-TROP2 #TP1 VHH (VHH)
VHH: EVQVVESGGGLAQPGGSLRLSCAASGFWFSTYAMSWARQAPGKGLEWVSGIYADGSATYYADSVKGRFTISRDNAKNTLYLHMNSLKPEDTALYYCAQGYSDYDRRVGGYDYWGQGTQVTVSS
B14: anti-TROP2 #TP2 VHH (VHH)
VHH: EVQLVESGGGLAQPGGSLRLSCAASGFTFSTYAMSWARQAPGKGLEWVSGIYADGSGTYYADSVKGRFTISRDNAKNTLYLQMNSLKPEDTALYYCAQGYSDYDRRLGEYDYWGQGTQVTVSS
B15: anti-TROP2 #TP12 VHH (VHH)
VHH: QVQLVESGGGLVQPGGSLRLSCAASRFTLDYYAIGWIRQAPGKEREGVSCISSSGGSTNYADSVKGRFTISRDNAKNTVYLQMNSLKPEDTGVYYCAATTYACSGYVPRAYEYDYWGQGTQVTVSS
B16: anti-TROP2 #TP14 VHH (VHH)
VHH: EVQVVESGGGLVQPGGSLRLSCAVSGFTLDWYAIGWFRQAPGKEHEGVACIDPSERSTYADPVKGRFTISRDNAKNTVHLQMNSLKPEDTAVYYCAADTLPCFFYGSMWPPPDNWGQGTQVTVSS
B17: anti-TROP2 #TP9 VHH (VHH)
VHH: QVQLVESGGGLVQPGGSLRLSCAASGFSLDYWAIAWFRQAPGKEREGVSCSGSRGSTHYADSVKGRFTISRDNAKNTVYLQMNSLKPEDAGVYYCAVGSTLYSLTPYEYDYWGQGTQVTVSS
B18: anti-TROP2 #TP10 VHH (VHH)
VHH: QVQLVESGGGLVQPGGSLRLSCAASGFRLDHWAIGWFRQAPGKEREGVSCSGSDESTYYADSVKGRFTISRDNAKNTVYLQMNSLKPEDTGVYYCAVGSTWYSLTPYEYDYWGQGTQVTVSS
B19: anti-TROP2 #TP4 VHH (VHH)
VHH: QLQLVESGGGLVQPGGSLRLSCAASGFTLDDYAMRWFRQAPGKAREGVSCISRSDGTTYYADSVKGRFTISRNNAENTVYLQMNSLKPEDTAVYYCAADSLGCNGYSDWGVDYWAKGTLVTVSS
B20: TROP2 CAR with anti-TROP2 VHH #TP2, on γδ T cells (other)
chain: EVQLVESGGGLAQPGGSLRLSCAASGFTFSTYAMSWARQAPGKGLEWVSGIYADGSGTYYADSVKGRFTISRDNAKNTLYLQMNSLKPEDTALYYCAQGYSDYDRRLGEYDYWGQGTQVTVSSTTTPAPRPPTPAPTIASQPLSLRPEACRPAAGGAVHTRGLDFACDIYIWAPLAGTCGVLLLSLVITLYCKRGRKKLLYIFKQPFMRPVQTTQEEDGCSCRFPEEEEGGCELRVKFSRSADAPAYQQGQNQLYNELNLGRREEYDVLDKRRGRDPEMGGKPRRKNPQEGLYNELQKDKMAEAYSEIGMKGERRRGKGHDGLYQGLSTATKDTYDALHMQALPPR
B21: TROP2 CAR with anti-TROP2 VHH #TP6, on γδ T cells (other)
chain: QLQLVESGGGLVQPGGSLRLSCAASGTLDYWTVGWFRQAPGKEREGVSCISSSDSSTYYADSVKGRFTISRDNAKNTVYLQMNSLKPEDTAVYYCAAGSLGYCSRSTPQYEYDFWGQGTQVTVSSTTTPAPRPPTPAPTIASQPLSLRPEACRPAAGGAVHTRGLDFACDIYIWAPLAGTCGVLLLSLVITLYCKRGRKKLLYIFKQPFMRPVQTTQEEDGCSCRFPEEEEGGCELRVKFSRSADAPAYQQGQNQLYNELNLGRREEYDVLDKRRGRDPEMGGKPRRKNPQEGLYNELQKDKMAEAYSEIGMKGERRRGKGHDGLYQGLSTATKDTYDALHMQALPPR
B22: TROP2 CAR with anti-TROP2 VHH #TP14, on γδ T cells (other)
chain: EVQVVESGGGLVQPGGSLRLSCAVSGFTLDWYAIGWFRQAPGKEHEGVACIDPSERSTYADPVKGRFTISRDNAKNTVHLQMNSLKPEDTAVYYCAADTLPCFFYGSMWPPPDNWGQGTQVTVSSTTTPAPRPPTPAPTIASQPLSLRPEACRPAAGGAVHTRGLDFACDIYIWAPLAGTCGVLLLSLVITLYCKRGRKKLLYIFKQPFMRPVQTTQEEDGCSCRFPEEEEGGCELRVKFSRSADAPAYQQGQNQLYNELNLGRREEYDVLDKRRGRDPEMGGKPRRKNPQEGLYNELQKDKMAEAYSEIGMKGERRRGKGHDGLYQGLSTATKDTYDALHMQALPPR
B23: TROP2 CAR with anti-TROP2 VHH #TP12, on γδ T cells (other)
chain: QVQLVESGGGLVQPGGSLRLSCAASRFTLDYYAIGWIRQAPGKEREGVSCISSSGGSTNYADSVKGRFTISRDNAKNTVYLQMNSLKPEDTGVYYCAATTYACSGYVPRAYEYDYWGQGTQVTVSSTTTPAPRPPTPAPTIASQPLSLRPEACRPAAGGAVHTRGLDFACDIYIWAPLAGTCGVLLLSLVITLYCKRGRKKLLYIFKQPFMRPVQTTQEEDGCSCRFPEEEEGGCELRVKFSRSADAPAYQQGQNQLYNELNLGRREEYDVLDKRRGRDPEMGGKPRRKNPQEGLYNELQKDKMAEAYSEIGMKGERRRGKGHDGLYQGLSTATKDTYDALHMQALPPR

For one assay, the target named is T1, human TROP2 (antigen of panning and …). In words: positive phage clones from panning on human TROP2-His protein or on TROP2-expressing CHOK1 cells, ELISA. The source says: After confirming successful immunization with TROP2 protein, PBMC was isolated and used for construction of a phage display library with the size of 2.42×10⁹ cfu. TROP2 VHH binders were isolated from the phage display library using solid phase panning on human TROP2-His protein and cell-based panning on the engineered, TROP2-expressing CHOK1 cells in two parallel discovery campaigns. […] Stringency was increased during successive rounds by decreasing antigen concentration, increasing the number and duration of washes, and/or changing the duration of selections. The positively identified phages were diluted and spread on a petri dish to grow single colonies. Individual phage clones were selected and amplified. […] After three rounds of screening on TROP2 CHOK1 cells, a total of 384 clones were selected, of which 163 clones were TROP2-specific as tested by ELISA. After sequencing the positive clones, 9 unique sequences were obtained based on amino acid sequences. In combination, a total of 20 unique sequences were identified.
On to B1, for which the binding result is “binds”.
On the same count and under the same terms, as for B2, the entry is “binds”; as for B3, “binds”.
Same read-out and setting: as for B4, the entry is “binds”; as for B5, “binds”.
As to B6, the binding result is on record as “binds”.
As to B7, the binding result is “binds”.
Regarding B8, the binding result was “binds”.
Turning to B9, the binding result is recorded as “binds”.
Still for that read-out and setting: as for B10, the entry is “binds”; as for B11, “binds”.
Take B12: the binding result was “binds”.
B13: the binding result is given as “binds”.
The same measure, in the same setting: to B14 belongs “binds”.
Still for that read-out and setting: as for B15, the entry is “binds”; as for B16, “binds”.
As to B17, the binding result is recorded as “binds”.
B18: the binding result is reported as “binds”.
For the molecule B19, the binding result is “binds”.

Another assay concerns the target T2, recombinant human TROP2 protein. In words: binding of TROP2 protein to binder-expressing γδ T cells.
With B20, the EC50 turned out to be 3.43 nM.
Turning to B21, the EC50 amounted to 17.7 nM.
The same measure, in the same setting: as for B22, the figure is 3.65 nM; as for B23, 14.4 nM.
